Results from patent publication US20220409751A1 (NORTHSTAR MEDICAL TECHNOLOGIES, published 2022).

Tests used:
[1] = molecular target: urokinase plasminogen activator receptor (uPAR) (UniProt Q03405); assay: direct binding assay
soluble uPAR (suPAR) = molecular target: T1, soluble uPAR (suPAR) (UniProt Q03405 23-305, limits assumed); assay: SPR (Biacore 2000), antibody captured on protein A/G surface, suPAR as analyte, 25 C, 1:1 Langmuir fit
T1 construct: Analyte in the Biacore capture assay
Method: The HE™ variants were diluted to 1 μg/mL and injected over a protein A/G surface. Antibody injections were optimized to produce antibody densities of 100-200 RU.
Six serial 3-fold dilutions of soluble uPAR (suPAR) were prepared in running buffer (PBS), and each dilution was injected in triplicate in random order at 25° C. Buffer injections were evenly distributed throughout the run. The sample injections were double-referenced against the blank flow cells and buffer injections to correct for any bulk shift or non-specific binding. Data were analyzed with BiaEvaluation software from Biacore®. Sensorgrams were fit utilizing a 1:1 Langmuir model.

T1 sequence (Q03405 23-305 limits assumed): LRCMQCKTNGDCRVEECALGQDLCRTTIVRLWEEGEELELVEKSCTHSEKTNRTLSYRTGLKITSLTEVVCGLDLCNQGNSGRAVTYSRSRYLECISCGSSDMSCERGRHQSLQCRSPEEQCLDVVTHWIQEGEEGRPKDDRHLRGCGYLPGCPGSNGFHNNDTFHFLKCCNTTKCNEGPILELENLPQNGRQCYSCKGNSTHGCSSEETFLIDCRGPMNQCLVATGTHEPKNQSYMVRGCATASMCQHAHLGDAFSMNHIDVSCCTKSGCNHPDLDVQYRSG
Chain of urokinase plasminogen activator receptor (uPAR) (Q03405 23-305 limits assumed): as above

mouse monoclonal antibody ATN-658
Kd [1]: 1 nM

B1: HE ™ ATN-1 (antibody, IgG1, V domains shown)
VH: EVQLVQSGPEVVKTGASVKISCKASGYSFTSYYMHWVKQAHGQGLEWIGEINPYNGGASYNQKIKGRATFTVDTSTRTAYMEFSSLRSEDTAVYYCARSIYGHSVLDYWGQGTLVTVSS
VL: DVVMTQSPLSLSVTIGEPASISCRSSQSLLDSDGKTYLNWLLQKPGQSPKRLIYLVSKRDSGVPDRFSGSGSGTDFTLKISRVEAEDVGVYYCWQGTHFPLTFGQGTKLEIK
notes: V regions cloned into transient expression vectors with human gamma-1 and kappa constant region modules (IgG1, kappa); made in HEK293E cells
Kd (soluble uPAR (suPAR)): 0.28 nM

B2: HE ™ ATN-4 (renamed MNPR-101) (antibody, human IgG1, kappa, V domains shown)
VH: EVQLVQSGPEVKKTGASVKISCKASGYSFTSYYMHWVRQAHGQGLEWIGEINPYNGGASYNQKIQGRATFTVDTSTSTAYMEFSSLRSEDTAVYYCARSIYGHSVLDYWGQGTLVTVSS
VL: DVVMTQSPLSLSVTIGEPASISCRSSQSLLDSDGKTYLNWLLQKPGQSPQRLIYLVSKRDSGVPDRFSGSGSGTDFTLKISRVEAEDVGVYYCWQGTHFPLTFGQGTKLEIKR
notes: IgG1 kappa; In the Biacore assay the transiently expressed (HEK293E), unconjugated antibody was used; also called mAb MNPR-101; humanized mAb MNPR-101
Kd (soluble uPAR (suPAR)): 0.39 nM

B3: HE ™ ATN-3 (antibody, IgG1, V domains shown)
VH: EVQLVQSGPEVKKTGASVKISCKASGYSFTSYYMHWVRQAHGQGLEWIGEINPYNGGASYNQKIQGRATFTVDTSTSTAYMEFSSLRSEDTAVYYCARSIYGHSVLDYWGQGTLVTVSS
VL: DVVMTQSPLSLSVTIGEPASISCRSSQSLLDSDGKTYLNWLLQKPGQSPKRLIYLVSKRDSGVPDRFSGSGSGTDFTLKISRVEAEDVGVYYCWQGTHFPLTFGQGTKLEIK
notes: Human gamma-1 and kappa constant region modules (IgG1, kappa); made in HEK293E cells
Kd (soluble uPAR (suPAR)): 0.28 nM

B4: HE ™ ATN-2 (antibody, IgG1, V domains shown)
VH: EVQLVQSGPEVVKTGASVKISCKASGYSFTSYYMHWVKQAHGQGLEWIGEINPYNGGASYNQKIKGRATFTVDTSTRTAYMEFSSLRSEDTAVYYCARSIYGHSVLDYWGQGTLVTVSS
VL: DVVMTQSPLSLSVTIGEPASISCRSSQSLLDSDGKTYLNWLLQKPGQSPQRLIYLVSKRDSGVPDRFSGSGSGTDFTLKISRVEAEDVGVYYCWQGTHFPLTFGQGTKLEIK
notes: as for B3
Kd (soluble uPAR (suPAR)): 0.38 nM
